Where a chain is given by its changes, count along the chain named. Names may count otherwise. “And” between values parts separate entries of the source, which are not always exact repeats. Equal entries are not always repeated. “Also recorded” adds a separate entry of the source. Where two headings read alike, the source gives them in different places.
How the values were obtained:
[1] = for heptadecane product yield of wild-type ADO compared with triple mutant E196A/E200A/D201A of ADO: both incubated with AAR
Description: For measuring the enzymatic activity of AAR, the AAR protein at the concentration of 20 µM was mixed with 2 mM NADPH and 0.5 mM stearoyl-CoA in a 100 µL reaction buffer containing 20 mM HEPES pH 7.5, 200 mM KCl, 0.5 mM MgCl2, and 0.5 mM TCEP. […] The ferrodoxin and FNR are recombinant proteins from cyanobacterial strains Synechocystis sp. […] PCC 7942, respectively, and were added into the reaction buffer for supplying electrons for the reduction of ADO. The mixture was incubated at 30 °C for 5 h. The produced octadecanal and heptadecane were extracted by addition of an equal volume of ethyl acetate (Sigma Aldrich, HPLC grade) and centrifuged at 13,000 × g for 15 min at room temperature. The extraction step was repeated for three times. The extracted supernatant was pooled together, dried with nitrogen gas, and then resolved in 20 µL ethyl acetate for the GC-MS measurement.
The concentration of octadecanal and heptadecane was measured using an Agilent 7890 A gas chromatograph coupled with an Agilent 7000B QQQ mass spectrometer. A total of 2 µL sample was loaded with the helium as the carrier gas onto the chromatographic column HP-5ms (30 mM × 0.25 mM ID, 0.25 μm; Agilent) at the flow rate of 1.3 ml min^−1. The injector temperature maintained at 300 °C with spotless mode. The GC oven settings were as follows: initial temperature 75 °C, held for 5 min, then at 40 °C min^−1, increased to 325 °C and held for 5 min. Ionization mode of EI (70 eV, 230 °C) and full scan of 50–550 m/z were chosen for MS detection. The standard curve was plotted based on the measuring of the commercial octadecanal and heptadecane (Sigma Aldrich) at a gradient concentration (from 3.125 to 75 µg mL^−1). Data were acquired and processed using MassHunter Workstation Software and the NIST database.

[2] = ITC; for Kd: read-out: KD value, binding with stearoyl-CoA, presence of potassium ion (+K+, 200 mM KCl), N.D. = not detected; for binding of AAR mutant with stearoyl-CoA (in words): +K+
Description: (§1) The binding affinity of AAR with ADO or stearoyl-CoA was measured by isotheral titration calorimetry (ITC) using a MicroCal Auto-ITC200 microcalorimeter (GE Healthcare Bio-sciences, Pittsburgh, PA). […] Wild type or mutants of ADO (or AAR) were placed into the sample cell (200 µL working volume) at a final concentration of 30 µM (60 µM for AAR) and was titrated with successive 2-µL injections of AAR protein with concentration of 500 µM (or ADO protein with concentration of 1 mM). Titrating AAR (500 µM) or ADO (1 mM) into the same buffer was performed as a control to determine the background correction. […] Injection of stearyol-CoA into the reaction buffer was performed as control to determine background correction.

[3] = Enzymatic activity assay of AAR toward stearoyl-CoA (octadecanal by GC-MS); format: biochemical, Synechococcus elongatus PCC 7942
From the text: PCC 6803 and Synechocystis sp. […] The extraction step was repeated for three times.

[4] = target: T1, aldehyde-deformylating oxygenase from Synechococcus elongatus PCC 7942, wild type, His-tag removed (Synechococcus elongatus PCC 7942, UniProt Q54764 1-231); experiment: ITC
T1 chain: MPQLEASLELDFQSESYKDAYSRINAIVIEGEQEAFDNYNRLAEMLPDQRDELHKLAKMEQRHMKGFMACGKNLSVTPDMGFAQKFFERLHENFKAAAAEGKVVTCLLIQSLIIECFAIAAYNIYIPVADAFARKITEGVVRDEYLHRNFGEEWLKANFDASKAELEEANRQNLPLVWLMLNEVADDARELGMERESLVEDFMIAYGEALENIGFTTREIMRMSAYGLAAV

[5] = target: T2, ADO (Synechococcus elongatus, UniProt Q54764); experiment: ITC binding of AAR (wild type and mutants) with ADO; set-up: species or system Synechococcus elongatus PCC 7942
T2 construct: His6-tag peptide (C, cleaved yes); made in house; host or cells: E. coli BL21(DE3), without chaperone plasmid
T2 sequence (Q54764 1-231): T1 chain
Description: as §1

[6] = target: T3, acyl-acyl carrier protein (acyl-ACP) reductase from Synechococcus elongatus PCC 7942, wild type, His-tag … (Synechococcus elongatus PCC 7942, UniProt Q54765 1-341); experiment: ITC; ADO (wild type or mutant) in the sample cell at 30 µM, titrated with 2-µL injections of 500 µM AAR; 25 mM Tris-HCl pH 7.5, 1 mM TCEP; conditions: both partners purified
T3 construct: acyl-ACP reductase (AAR), Synechococcus elongatus PCC 7942, gene Synpcc7942_1594; complete protein of 341 residues; after TEV cleavage ENLYFQ probably stays at the C-terminus (surmised); also called AAR; SeAAR; not shown: His6, C-terminal, cleaved
T3 sequence (looked up): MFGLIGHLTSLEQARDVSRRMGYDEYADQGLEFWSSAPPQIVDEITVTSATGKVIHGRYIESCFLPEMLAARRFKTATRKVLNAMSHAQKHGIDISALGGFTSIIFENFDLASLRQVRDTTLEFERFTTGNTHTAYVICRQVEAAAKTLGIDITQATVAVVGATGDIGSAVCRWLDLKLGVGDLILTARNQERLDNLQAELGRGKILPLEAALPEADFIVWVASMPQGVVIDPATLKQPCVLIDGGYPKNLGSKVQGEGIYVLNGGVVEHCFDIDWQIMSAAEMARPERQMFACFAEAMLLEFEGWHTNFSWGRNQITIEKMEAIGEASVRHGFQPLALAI

[7] = target: T4, AAR (Synechococcus elongatus, UniProt Q54765); experiment: ITC binding of ADO (wild type and mutants) with AAR; set-up: species or system Synechococcus elongatus PCC 7942
T4 construct: modeled the complete AAR protein containing 341 amino acid residues; 22-residue C-terminal peptide with His6 (G + […]) (C, cleaved yes); made in house; host or cells: E. coli BL21(DE3) co-transformed with chaperone plasmid pG-KJE8
T4 sequence (Q54765 1-341): T3 sequence (looked up)
Description: as §1

ADO wild type: aldehyde-deformylating oxygenase from Synechococcus elongatus PCC 7942, wild type recombinant protein
heptadecane product yield of wild-type ADO compared with triple mutant E196A/E200A/D201A of ADO ([1]; listed as wild type ADO): more than twice
heptadecane product yield of wild-type ADO compared with triple mutant E196A/E200A/D201A of ADO ([1]; listed as wild-type ADO): two times more product

AAR wild type: acyl-acyl carrier protein reductase from Synechococcus elongatus PCC 7942, wild type recombinant protein
binding between AAR and stearoyl-CoA for AAR incubated with NADPH (in words) [2]: not significantly affected by NADPH
Kd ([2]; listed as AAR): 0.09 µM
Kd ([2]; listed as apo-AAR): ~0.09 µM
Octadecanal yield, single data (data1-data3) [3]: 5.8 and 7.04 and 5.2

B1: acyl-acyl carrier protein (acyl-ACP) reductase from Synechococcus elongatus PCC 7942, wild type, His-tag removed (enzyme)
chain: T3 sequence (looked up)
Ka [4]: 496000 M⁻¹

B2: AAR Y247F: AAR single mutant Y247F (protein)
chain: T3 sequence (looked up) with Y247F
modifications: left off: His6, C-terminal, cleaved
binding of AAR mutant with stearoyl-CoA (in words) [2]: decreased binding affinity
binding of AAR mutant with stearoyl-CoA (in words) ([2]; listed as Y247F mutant): reduced binding affinity with stearoyl-CoA
Octadecanal yield [3]: 61.1 ± 6.76 µg/mL
Octadecanal yield, EVERAGE ([3]; source data of Table 3, +K+): 61.0928
Octadecanal yield, single data (data1-data4) ([3]; source data of Table 3, +K+): 68.55 and 59.38 and 55.3483
binding of AAR mutant with ADO (in words) [5]: almost the same as that of AAR wild type

B3: AAR K80A (protein)
chain: T3 sequence (looked up) with K80A
modifications: left off: His6, C-terminal, cleaved
binding of AAR mutant with ADO (in words) [5]: abolish the binding capability with ADO

B4: AAR R73A (protein)
chain: T3 sequence (looked up) with R73A
modifications: left off: His6, C-terminal, cleaved
binding of AAR mutant with ADO (in words) [5]: abolish the binding capability with ADO

B5: AAR R79A (protein)
chain: T3 sequence (looked up) with R79A
modifications: left off: His6, C-terminal, cleaved
binding of AAR mutant with ADO (in words) [5]: abolish the binding capability with ADO

B6: aldehyde-deformylating oxygenase from Synechococcus elongatus PCC 7942, D201A mutant (enzyme, UniProt Q54764 1-231, looked up)
chain: T1 chain with D201A
notes: aldehyde-deformylating oxygenase (ADO), Synechococcus elongatus PCC 7942, gene Synpcc7942_1593; Made by PCR on pET24a-ADO; also called ADO D201A; source: E. coli BL21(DE3), purified (same protocol as wild-type ADO); not shown: His6, C-terminal, cleaved
Kd [6]: 4.9 ± 1.4 µM

B7: ADO E200A/D201A (protein)
chain: T1 chain with E200A, D201A
modifications: left off: His6, C-terminal, cleaved
binding of ADO mutant with AAR (in words) [7]: completely lose their capability to bind AAR; also recorded: completely abolished the capability of ADO to bind with AAR

B8: ADO E196A (protein)
chain: T1 chain with E196A
modifications: left off: His6, C-terminal, cleaved
binding of ADO mutant with AAR (in words) [7]: significantly reduced binding affinity with AAR

B9: ADO E196A/E200A/D201A (protein)
chain: T1 chain with E196A, E200A, D201A
modifications: left off: His6, C-terminal, cleaved
yield of octadecanal compared with the wild type ADO reaction system (in words) ([1]; AAR incubated with wild type or triple mutant ADO): similar
binding of ADO mutant with AAR (in words) [7]: completely lose their capability to bind AAR; also recorded: completely abolished the capability of ADO to bind with AAR

B10: ADO E200A (protein)
chain: T1 chain with E200A
modifications: left off: His6, C-terminal, cleaved
binding of ADO mutant with AAR (in words) [7]: significantly reduced binding affinity with AAR

B11: aldehyde-deformylating oxygenase from Synechococcus elongatus PCC 7942, E211A mutant (enzyme, UniProt Q54764 1-231, looked up)
chain: T1 chain with E211A
notes: aldehyde-deformylating oxygenase (ADO), Synechococcus elongatus PCC 7942, gene Synpcc7942_1593; Made by PCR on pET24a-ADO; also called ADO E211A; source: E. coli BL21(DE3), purified (same protocol as wild-type ADO); not shown: His6, C-terminal, cleaved
Kd [6]: 2.8 ± 0.85 µM

B12: aldehyde-deformylating oxygenase from Synechococcus elongatus PCC 7942, E208A mutant (enzyme, UniProt Q54764 1-231, looked up)
chain: T1 chain with E208A
notes: aldehyde-deformylating oxygenase (ADO), Synechococcus elongatus PCC 7942, gene Synpcc7942_1593; Made by PCR on pET24a-ADO; also called ADO E208A; source: E. coli BL21(DE3), purified (same protocol as wild-type ADO); not shown: His6, C-terminal, cleaved
Kd [6]: 14.8 ± 3.7 µM

Reference: publication PMC7089970, “Structural insights into catalytic mechanism and product delivery of cyanobacterial acyl-acyl carrier protein reductase” (Nature Communications, 2020)
